# In the DeepSol protein solubility set:
# Assay: soluble on expression in E. coli; label from the status in PepcDB or PDB records
row,Sequence,soluble on expression in E. coli
1,MPNDIENGTVIPPRRGVVWKIEEKELQGFAIPFPGADLSVMVRSQYYDATVRKSRPVHLSSYFQLDTRFKTYRLILWGAITRAFALASFTRRILLKYPDQCSFRMFKKSGPSAQQIAEASFTYWFFGYGYKETIPLDQQHERKVDRKVVATCKGPDLAYMAASGCVLSAALALVKDKNNLPKEGGVYTPAAAFGDSKIYDYLATFGINFHLESEYDL,not soluble
2,MPNDLPFDLRPSRRTVTMGLAAGVAAALLPWRAQALDTGTARALVVEAVAQVNRTINSGKSEGQMYADFERLFARYADVPAIARTALGVAARSASRQEISAFTQAYQGYIARKYGKRFREFIGSEIKVNDARPMKSAVEVISTAYLRNENPFEVRWHVSDRSGRPAFFNIIIEGVNMLASERAEVGALLDRNRGSIPALTEQLRRASLEHHHHHH,not soluble
3,MPNKNGVGKKSPSTSKSSNNNKRREPEFRYEEKTAVHGGKTKYEEKTVVHGGKTKNVVAKKVPSKASVIVDKKASTTETTVPITVKKSLLSISTAYDRTVTEEKEKEKPKKKEKEKWSGEEASIKFVKSLGSINLKDEYDEIQKLPVQTERCKMWQSHSSRNRHNDSKCYDHNRIIVQMCKDDYINGSKINVPHFTPSIYLVQLPKMDSVDAVEEFWRVVFHEQCQTVHIIARPEELTNPAIDKLFCQESGAWLYANGFFVNTRKVEKKENAKADMFVVELLPEGCSNAVMCSVYLHTYWKPLFGPDRFGAQIRAAHQIAKNENGNSPTVIASVNGSGRNAALLTLAVVEDQLTRGKEPKISEIVRTIREQRPQSVDSYIQYVSLYMATNWLIKTKLPSGHEVVSKIKKFNEKATRSLPGSMMKTPTEEL,not soluble
4,MPNLPALPDMGLPVVTSDLTATLLPGVASPIVPGQPIEQAFSSILISMMKSDQAIEDDTENPAPVSIDALIAGMIAAPANPPQLVPSQPAPDALDTPNAPDAPAEELLSMLATSMMPNTGQPVTDEPVTFPAGGLASATPPNLPSDSGRHAADPLQTTSQAHAAPLPAELPAGNISTSTPFPAPVNSFNQAIDAANFADSGKSLPPSMTSVPVTPVAAHTSSTPLTDIAADTTANDAPAIAAEFGQPDWPEEFGRKITWLATQRMQAAELKLHPAHLGPIEISLQLSDDQRLTAQFISHHPAVREAIEANLPRLREIMAENGITLADTSVSADTPGQQAENRQGSPFRRPAAGDHSTYDSTSPQTPALQATRRSSLIDTFA,not soluble
5,MPPEIMRFKERLEEAMNGESSRAFAAKCGLSDGVIRNYLSGKTYPSLDRLAQIAYATGRPIEWFIQSQSMPMVEHKNNQENKNSQPDRSTLKTKLIAIVELLEDKELHSAIELFRKKGFEALMPEIFSSDDSIQADLQGISQQTLQTAKMLESLPTDTRKKILSKYGIYEQEGLVAPSQEPQDVKKAV,not soluble
6,MPPGKCLFSGVFCNMAEKQTAKRNRREEILQSLALMLESSDGSQRITTAKLAASVGVSEAALYRHFPSKTRMFDSLIEFIEDSLITRINLILKDEKDTTARLRLIVLLLLGFGERNPGLTRILTGHALMFEQDRLQGRINQLFERIEAQLRQVLREKRMREGEGYTTDETLLASQILAFCEGMLSRFVRSEFKYRPTDDFDARWPLIAAQLQ,not soluble
7,MPPGKNFRRRKEDSSDEEDDETKFVVRSKLDEAKELQSLRKRQHGVSIATLLVGEKLPLEAELEDDPFKLKTGGVVDMKKVKDRSRDMTVDENDLNLGTSFSAETNRRDEDADMMKYIETELKKKKGMVEAEEQKVKVKNPEDLLYELPENINVSSAKKTEEMLSNQMLSGIPEVDLGIDAKIKNIINTEEAKAKLLAEQRNKKKDSGTSFVPTNIAVNYVQHNRFYHEDSNAPQRRNREEPKARPLRVGDTEKPAPEASPPNFRKRPNNEKATDDYHYEKFKKMNRRY,soluble
8,MPPLTHQSLKCVIKHLEANARIQLSQRCPSLHKTEKLIPLTIYNLELDQCSVKINNTDYSLTLTSNNFSSPFDLDQFGAIDLDEVDVDGNDVLVDNRSFKEEKNRLLRMRIEIRKMPDGVEKQEATAAVVALEQLEDNRWLRREPTSSSMMNLSINSQFIIFRGEKLCYNMKLHQAFRYLVAKLFSGRRCPIQVKKLSVECKGILRVPADLRFKVSHLEILGSGVDKIVEAFKPLIGRIQTITVNDDFNISHPIFQTALILKNPNENLFGAASASNVRVENNEQFSSLSERVVDLIRIWQSHGHKIGTIWNFSMRSQEQALDSIMYLRRQLGASFSGHKNLSQYGRSAAISLNNSDEIYVSFKQQQIKVWNLKVVVRRKRL,not soluble
9,MPQDYISYIRSKVGHDKIILNFAGGILTNDDGKVLMQLRGDKKTWTIPGGTMELGESSLETCKREFLEETGIEVEAVRLLNVYTHFEEVYPNGDAVQTIVFIYELTAVSDMAIDNFHNEETLKLQFFSHEEIAELESVSAKHRLMLEEYFSDSFAMGH,not soluble
10,MPQFSNRRRVPHSAQQMFDLVADVERYPQFVPLCKALKIRERIQQPDGNEVVIADMTVSFKLVQETFTSRVTLDRANLKILVEYLKGPFSNLENRWTFAAKTERACEVGFFIAYEFKSRMLATLMGAMFDTAFHRFAEAFETRADQIYGTGPKLSRALEHHHHHH,not soluble
11,MPQIQSSHSNHFDFTIDTADRTKLLMSYLVVPTTANFNNVMHGGELLNLLDKVAYVCSTRYCAKGTVTLSVDGVTFKYPIPVGNLLTFLASINYVGNTSCEVGIKVLSEDIKTREITHTNSCYFTMVAVENGKPTPMPKYEPKTEVEIRRYEGALKRKEMRTRGYLKSGKHEGVLEHHHHHH,not soluble
12,MPQITLSAEVQPEQMGQRLDQTLAELFPEYSRSRLKTWIEADLVKLNDRITNIPREKVLGGERIEIIVEVEDETRFEAENIPLNIVYEDDDIIVINKPKDLVVHPGAGNPNGTVLNALLYHYPPIVEVPRAGIVHRLDKDTTGLMVVAKTIPAQTKLVRDLQKRKITREYEAVASGIMTKGGTVDQPMARHATKRTLMAVHPMGKPAVTHYRIMENYRNYTRLRLRLETGRTHQIRVHMAHIAHPLLGDQTYGGRPRPPKNASEDFMEVLRNFKRQALHAVMLRLAHPITGEMMEWYAPLPDDFVELLNALKADYLEHQDELDY,soluble
13,MPQYKLTYFDLRGWAEPARQLFHLSHTPYDDIRIPMADTEGKWEKMRDKTPFGQLPVLNVDGFDIPQSAAICRYLAKKFGYAGKTPEEEAWADAVVDQFKDFSVAFKTLLFATRAGKPEEEILKIRYEIFNPARDVYFILLNRILKKSKSGYLVGDGLTWADLVIADNLHSLEKLRAIDDDDEGHQNLKKYKEKIYGTPDLEDHIATRMDTEV,not soluble
14,MPRAYWKGTLKLSLVTCPVALYPATTSVEKTRFHMINAETGNRLKQQMIDEDTGDVVEKDQKARGYEVRKGKYIEIEKDELEAVQIESTHTIDIDSFVPADEIDQRFLNHPYYIVPDGKAGTDAFAVIRDAMKDKGHVALGRIVLTNREHVLAIEPFGKGLLATTLRYPYELRDAD,not soluble
15,MPRFSCYEVRSEFPELERGIVYLDNAASTLKPRRVVEAMREFSYRSYANVHRGVHRLSMEASKAYEDAHEVVARLVGGSWDEVVFTRNTTEAMQLAALTLAYNGLLRGGEVLVTAADHHSTLLPWVRAARLGGGRARILPLDGRGVPRWDLLEDYITEDTRAVAVGHVSNVTGVVAPVEDIVKAAKKVGALVVLDSAQGVPHLPVDFRRMGVDMAAFSGHKMLGPTGIGVLWARRDLLEELEPPLGGGGTVSRVRLQGGSVEIEWEEPPWKFEAGTPPIIEAVGLAEAANMLMEIGMEHVARHEDELTSHTMKLLEPLYSEGLIRYVGPDKPGERHGIVSITTHLKSPDELGLLLDRRGIAVRTGLHCAHILHDHVDASMGSVWASFYIYNCKEDAERLAEALEEILTTRR,soluble
16,MPRHETDCRYFANGYCSKGNTCTFTHDVATRNENICHFNLVGKCSYGRACRFLHTRPRNDELPSCSTPQTSQNQQNLQNSGQRVRPKQLPELKFNAQAAEFVPRWKMPQRGPVTSYAGAAASADHGESSSSFQSSHEQAQLMMCPYHQKSGDCNRQDMDCPFAHGNYCDMCQQWSLHPYNAELRKKHENECVANHTTEMERAFLLQKTEQKTCGICMENIFEKNLRFGILNGCQHCFCLDCIRQWRSKDQENVELATKTVRSCPECRQHSDYVIPSLFWVESGQEKDLLIEMYKENTKRKICKYYSNERSRGACPFGNKCFYKHQLPDGSIDPGEAPSSRRRPRLVDFLFDDNSDSDEETFRRFQEEHEEEQEELLRFVAETLPEADEESELFRQITEVLRHYQISGHRRGFQ,not soluble
